Data taken from patent US20210214418A1.

Target: chemokine receptor CXCR5 (overexpressed on CXCR5-CAR T cells) (UniProt P32302)
Test: cell-based or functional assay

Chain of UniProt P32302 (P32302 whole entry): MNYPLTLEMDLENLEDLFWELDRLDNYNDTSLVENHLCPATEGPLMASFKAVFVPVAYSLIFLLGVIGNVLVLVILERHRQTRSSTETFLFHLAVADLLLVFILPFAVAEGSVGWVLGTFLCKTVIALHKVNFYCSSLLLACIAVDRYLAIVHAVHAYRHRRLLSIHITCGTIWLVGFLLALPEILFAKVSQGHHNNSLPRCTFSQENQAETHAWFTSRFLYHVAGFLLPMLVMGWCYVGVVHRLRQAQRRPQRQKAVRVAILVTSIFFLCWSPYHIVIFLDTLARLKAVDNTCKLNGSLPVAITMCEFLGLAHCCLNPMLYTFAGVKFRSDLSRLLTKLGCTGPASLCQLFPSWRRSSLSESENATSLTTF

“CXCL13 stably transfected in A549 cells (A549-CXCL13) (from UniProt O43927 23-109) (ligand)” gave a radio-isotope signal at the CXCL13 positive tumor site, EGFR-CXCR5-CAR compared with EGFR-CAR, 72 h of 3 fold and a radio-isotope signal at the CXCL13 positive tumor site, EGFR-CXCR5-CAR compared with EGFR-CAR, 168 h of 7 fold.
